Assay results as given in patent publication US12091776B2, “Protease activity profiling via programmable phage display of comprehensive proteome-scale peptide libraries” (THE JOHNS HOPKINS UNIVERSITY, priority 2019, dated 2024).

B1: VASN: Vasorin, known ADAM17 substrate; library peptide amino acids 496-585 (protein)
peptide: LTYRNLSGPDKRLVTLRLPASLAEYTVTQLRPNATYSVCVMPLGPGRVPEGEEACGEAHTPPAVHSNHAPVTQAREGNLPLLIAPALAAV
B2: QSVSPVQAPPPGGSAQLLPGKVLVPLAAPSMSVRGGGAGQPLPLVSPPFSVPVQNGAQPPSKIIQLTPVPVSTPSGLVPPLSPATLPGPT (protein, listed as Homo sapiens)
chain: QSVSPVQAPPPGGSAQLLPGKVLVPLAAPSMSVRGGGAGQPLPLVSPPFSVPVQNGAQPPSKIIQLTPVPVSTPSGLVPPLSPATLPGPTA
B3: SPLIAPVMGTVAVSLSSPLLSSTATPPGVSQNLLANPMSNLVLPEAPRLRLAEPLRGGPTGPQSPACVVPTATTKVPLSTEPPQSTQDPE (protein, listed as Homo sapiens)
chain: SPLIAPVMGTVAVSLSSPLLSSTATPPGVSQNLLANPMSNLVLPEAPRLRLAEPLRGGPTGPQSPACVVPTATTKVPLSTEPPQSTQDPE
B4: SSVSTGHTTPLHVTDASSASTGQATPLPVTSLSSVSTGDTTPLPVTSPSSASTGHATPLLVTDTSSASTGHATPLPVTDASSVSTDHATS (protein, listed as Homo sapiens)
chain: SSVSTGHTTPLHVTDASSASTGQATPLPVTSLSSVSTGDTTPLPVTSPSSASTGHATPLLVTDTSSASTGHATPLPVTDASSVSTDHATS
B5: PARLLGPSLTSTTPASSSSGSSSRGPSDTSSRFSKEQRGVAQPLAQLRSCPQEEGPRGRGLAARPLENRAGGPVARSEEPGAPLPVAVGT (protein, listed as Homo sapiens)
chain: PARLLGPSLTSTTPASSSSGSSSRGPSDTSSRFSKEQRGVAQPLAQLRSCPQEEGPRGRGLAARPLENRAGGPVARSEEPGAPLPVAVGT
B6: VLNSGARVWPSASALGLTAPPKDAEDRARPASGLRGARVLSEGREPRASLRVQVRPGLDVAAPGVCSLSCPSPPRSSAHPGPRGPLFPAL (protein, listed as Homo sapiens)
chain: VLNSGARVWPSASALGLTAPPKDAEDRARPASGLRGARVLSEGREPRASLRVQVRPGLDVAAPGVCSLSCPSPPRSSAHPGPRGPLFPAL
B7: HSALPFRLQLRRGEARLGEERHFQESGNSSWEILRASKAEEGTYECTAVSRAGTGRAKAQIVVTDPPPQLVPAPNVTVSPGETAVLSCRV (protein, listed as Homo sapiens)
chain: HSALPFRLQLRRGEARLGEERHFQESGNSSWEILRASKAEEGTYECTAVSRAGTGRAKAQIVVTDPPPQLVPAPNVTVSPGETAVLSCRV
B8: PVTSTSSASTGHATPLPVTGLSSATTDDTTRLPVTDVSSASTGQATPLPVTSLSSVSTGDTTPLPVTSPSSASTGHASPLLVTDASSAST (protein, listed as Homo sapiens)
chain: PVTSTSSASTGHATPLPVTGLSSATTDDTTRLPVTDVSSASTGQATPLPVTSLSSVSTGDTTPLPVTSPSSASTGHASPLLVTDASSAST
B9: YVAPLTAQPATYRAQPSVSLGAAYRAQPSASLGVGYRTQPMTAQAASYRAQPSVSLGAPYRGQLASPSSQSAAASSLGPYGGAQPSASAL (protein, listed as Homo sapiens)
chain: YVAPLTAQPATYRAQPSVSLGAAYRAQPSASLGVGYRTQPMTAQAASYRAQPSVSLGAPYRGQLASPSSQSAAASSLGPYGGAQPSASAL
B10: RLALPLRSLSASSGWNESCSSQSDISLDHVQRRRSRLKEPPELQSSERAAGSPPAPGTMSKHRGKSSATCRCCVTYCEGENHLRNKSRAE (protein, listed as Homo sapiens)
chain: RLALPLRSLSASSGWNESCSSQSDISLDHVQRRRSRLKEPPELQSSERAAGSPPAPGTMSKHRGKSSATCRCCVTYCEGENHLRNKSRAE
B11: ATPGAPGSSTPGEADIGNTSFGKSGKSGHDSLTVLNPAFLRRTPTVSAASTTSSPVSKHTDAASATAVTISGSKPGTPGTPGGATSGGKI (protein, listed as Homo sapiens)
chain: ATPGAPGSSTPGEADIGNTSFGKSGKSGHDSLTVLNPAFLRRTPTVSAASTTSSPVSKHTDAASATAVTISGSKPGTPGTPGGATSGGKI
B12: KAGVVTLHSVGPTAATGTTAGTGLLQTSKPLVTSVANTVTTVSLQPEKPVVSGTAVTLSLPAVTFGETSGAAICLPSVKPVVSSAGTTS (protein, listed as Homo sapiens)
chain: KAGVVTLHSVGPTAATGTTAGTGLLQTSKPLVTSVANTVTTVSLQPEKPVVSGTAVTLSLPAVTFGETSGAAICLPSVKPVVSSAGTTS
B13: MELQSRPEALAVELARHQNGDLKKQLHERQPRIAALSDKQALGTITAVPVTGPQVSSLQRLAGQGAAVLPQVRPKTLIPDSLPVAPGRDR (protein, listed as Homo sapiens)
chain: MELQSRPEALAVELARHQNGDLKKQLHERQPRIAALSDKQALGTITAVPVTGPQVSSLQRLAGQGAAVLPQVRPKTLIPDSLPVAPGRDR
B14: IAAKAQLARQQSPSPIRHSPSPVRHVRAPTPSPVRSVSPAARISTSPIRSVRSPLLMRKTQASTVATGPEVPPPWKQEGYVASSSEAEMR (protein, listed as Homo sapiens)
chain: IAAKAQLARQQSPSPIRHSPSPVRHVRAPTPSPVRSVSPAARISTSPIRSVRSPLLMRKTQASTVATGPEVPPPWKQEGYVASSSEAEMR
B15: KVATLPLSSRAGAPPAAVPIINMILPTVPALPGPGPGPGRAPPGGLTQPRGTENREVGIGGDQGPHDKGVKRTAEVPVSEASGQAPPAKA (protein, listed as Homo sapiens)
chain: KVATLPLSSRAGAPPAAVPIINMILPTVPALPGPGPGPGRAPPGGLTQPRGTENREVGIGGDQGPHDKGVKRTAEVPVSEASGQAPPAKA
B16: EPEPTPGLVLSKPALEEEEAPRALSLLSLPPKKRSILGLGQARPLEFLRTCYGGSFLVHESFLYKREKAVGDKVYWTCRDHALHGCRSRA (protein, listed as Homo sapiens)
chain: EPEPTPGLVLSKPALEEEEAPRALSLLSLPPKKRSILGLGQARPLEFLRTCYGGSFLVHESFLYKREKAVGDKVYWTCRDHALHGCRSRA
B17: EIVPASLQRVRRPVAMVMPARRTPHVQAVQGPLGSPPKRGPLPTEEQRVYRRKELEEVSPETPVVPATTQRTLARPGPEPAPATDERDRV (protein, listed as Homo sapiens)
chain: EIVPASLQRVRRPVAMVMPARRTPHVQAVQGPLGSPPKRGPLPTEEQRVYRRKELEEVSPETPVVPATTQRTLARPGPEPAPATDERDRV
B18: … (protein, listed as Homo sapiens)
chain: STRPVLASIEPELPMQLVSQDDESGQKKLHGLQAILVHEASGTTAITATATGYQESHLSSARTKQPHDPLVPLSASIELILVEDVRVSPE
B19: ARQEKLAFQEDSRSTLSRRELDAAHTGTTGQDSDFPVTAASTVDFLKIKKSCEENVCRSLKDCEMEKCPDSCAHEMESVADHEPNKRILG (protein, listed as Homo sapiens)
chain: ARQEKLAFQEDSRSTLSRRELDAAHTGTTGQDSDFPVTAASTVDFLKIKKSCEENVCRSLKDCEMEKCPDSCAHEMESVADHEPNKRILG
B20: AIRLANSTASVSRGSMQELDMLAGLRRSHAPQSRSSLNAKPHDSLDLNCDSRDFVAAIISIPTPPANTPDESQPSSPGGGGRAGSTLRNS (protein, listed as Homo sapiens)
chain: AIRLANSTASVSRGSMQELDMLAGLRRSHAPQSRSSLNAKPHDSLDLNCDSRDFVAAIISIPTPPANTPDESQPSSPGGGGRAGSTLRNS

Each molecule was assayed against T1, ADAM17 (Homo sapiens, UniProt P78536) (assay: SEPARATE assay: human peptidome library digest with ADAM17). Details: human library, ADAM17; peptide amino acids 496-585.
T1 construct: purchased RnD Systems
Type: biochemical
Description: Streptavidin-coupled magnetic beads (Dynabeads M-280 Streptavidin, ThermoFisher Scientific) were washed (TBS, pH 7.4, 0.01% NP40) and resuspended in binding buffer (TBS, pH 7.4, 0.001% NP40) containing 2E9 plaque forming units per 10 μl of bead slurry. End-over-end mixing at room temperature was performed for one hour. Phage-coated beads were washed three times with wash buffer and transferred into two protein LoBind Eppendorf tubes blocked with TBS, pH 7.4 containing 1% BSA.
Digestion occurred overnight at room temperature with end-over-end rotation. […] To remove any residual biotinylated phage that may have been nonspecifically released, the 150 μl supernatant of the quenched digest reaction is then incubated with a fresh 10 μl of slurry volume M280 streptavidin beads (pre-washed three times with wash buffer) in a LoBind Eppendorf tube blocked with TBS, pH 7.4 containing 1% BSA at room temperature for one hour with end-over-end rotation.
10 μl slurry volume of protein G magnetic dynabeads were washed in buffer (TBS, pH 7.4, 0.01% NP40) and then resuspended in 50 μl TBS, pH 7.4, 0.01% NP40 containing 4 μg of M2 FLAG antibody for thirty minutes at room temperature with end-over-end rotation. The 150 μl quenched digest reaction is added to the 10 μl FLAG-coated Protein G beads and incubated for 60 minutes at room temperature with end-over-end rotation to capture phage particles released at the protease digest step. Beads are rinsed once with 100 μl wash buffer and stored at −80° C. until PCR amplification.
Library PCR preparation, high-throughput DNA sequencing, and peptide read count data generation was performed as described previously.^44 Briefly, library peptide inserts are amplified by resuspending 10 μl of FLAG-coated Protein G beads in PCR1 master mix containing the T7-Pep2_PCR1_F forward primer ([…]) (SEQ ID NO:3) and a T7-SEPARATE vector specific reverse primer ([…]) (SEQ ID NO:4), which includes an adapter sequence for sample-specific barcoding and Illumina P7 adapter incorporation during a subsequent PCR2 reaction. The PCR2 amplicons are pooled and sequenced using an Illumina NextSeq instrument in standard output mode to obtain single-end 50 nucleotide reads. Dual indexed sample demultiplexing and clonal read count determination were performed using exact sequence matching. […] To calculate the normalization factor, 100 peptides were randomly selected from the mock digest conditions with a read count ranging between 10 and 40. The median read count value for these 100 peptides is calculated for each sample. The random peptide selection and median calculation is performed 20 times and the average of the 20 median values is calculated for each sample. Finally, the normalization factor is calculated by dividing the average median value for each sample by that for one of the mock digest conditions. Read counts are then converted to normalized read counts by dividing each sample's read count values by the normalization factor. Fold enrichments are calculated for each peptide by dividing their normalized read counts in the digest condition by the normalized read counts in the mock digest condition. The fold enrichments can be visualized in an MA plot by transforming the normalized read count data into a log ratio (M, on the y-axis) and a mean average (A, on the x-axis) between the digest and mock digest conditions.

T1 sequence (P78536 215-824): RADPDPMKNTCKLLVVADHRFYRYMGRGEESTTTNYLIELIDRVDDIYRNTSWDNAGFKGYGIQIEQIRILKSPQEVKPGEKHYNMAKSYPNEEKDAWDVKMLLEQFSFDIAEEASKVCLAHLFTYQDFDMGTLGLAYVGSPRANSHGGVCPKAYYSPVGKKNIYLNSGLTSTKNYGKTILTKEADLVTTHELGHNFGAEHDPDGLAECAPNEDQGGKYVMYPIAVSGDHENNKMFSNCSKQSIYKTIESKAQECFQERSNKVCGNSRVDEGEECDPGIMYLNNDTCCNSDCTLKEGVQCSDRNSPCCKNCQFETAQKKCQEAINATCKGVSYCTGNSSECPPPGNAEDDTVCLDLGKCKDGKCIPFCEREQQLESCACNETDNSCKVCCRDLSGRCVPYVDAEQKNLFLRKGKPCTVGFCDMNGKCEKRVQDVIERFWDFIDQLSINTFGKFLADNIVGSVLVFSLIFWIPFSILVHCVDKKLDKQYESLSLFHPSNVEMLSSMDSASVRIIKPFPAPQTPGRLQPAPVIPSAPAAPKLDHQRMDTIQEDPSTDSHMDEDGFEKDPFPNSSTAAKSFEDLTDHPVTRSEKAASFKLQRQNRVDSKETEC

| Molecule | known substrate peptide identified by SEPARATE |
| --- | --- |
| B1 | identified |

Same assay, conditions: top 20 enriched peptides, human library (90-aa tiles); digest vs mock digest

| Molecule | Adam17 Fold Change [fold] |
| --- | --- |
| B2 | 57.55 |
| B3 | 51.48 |
| B4 | 48.17 |
| B5 | 45.89 |
| B6 | 44.03 |
| B7 | 43.29 |
| B8 | 41.41 |
| B9 | 39.99 |
| B10 | 39.89 |
| B11 | 39.34 |
| B12 | 39.07 |
| B13 | 38.34 |
| B14 | 37.14 |
| B15 | 35.48 |
| B16 | 35.48 |
| B17 | 34.93 |
| B18 | 34.57 |
| B19 | 34.10 |
| B20 | 57.97 |
